Here are results for one molecule from patent publication US20220387557A1 (OXFORD UNIVERSITY INNOVATION, published 2022).

The target of assay [1] is T1, Fc tagged human TNFR2 (Sino Biological) (human, UniProt P20333 23-257).
T1 construct: Bought reagent; also called hTNFR2; hTNFR2-Fc; not shown: Fc tag of the bought protein
T1 sequence (looked up): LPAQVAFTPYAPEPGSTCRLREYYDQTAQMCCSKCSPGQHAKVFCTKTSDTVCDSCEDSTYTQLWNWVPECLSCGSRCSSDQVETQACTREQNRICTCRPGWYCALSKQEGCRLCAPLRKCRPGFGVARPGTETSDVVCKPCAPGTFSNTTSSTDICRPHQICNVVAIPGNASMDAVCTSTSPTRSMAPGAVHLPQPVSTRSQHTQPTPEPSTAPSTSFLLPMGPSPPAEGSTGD
The experiment in a line: SPR, Biacore single cycle kinetics, stability study, after 1 year at -80° C. Here is the method: (§1) Due to the limit in the number of available flow cells for analysis (three Fc per analysis, Fc2, Fc3 and Fc4, with Fc1 always being used as blank reference for non-specific subtraction), receptor binding was assessed in two separate overlapping runs using either: hTNFR1 (Fc2), hTNFR2 (Fc3) and mTNFR1 (Fc4), or; hTNFR1 (Fc2), […] and mTNFR2 (Fc4). Receptors were diluted in running buffer to a concentration of ˜4 μg/mL and at the start of each cycle loaded onto Fc2, Fc3 and Fc4 of a Protein A chip (GE Healthcare, Little Chalfont, UK) at a flow rate of 10 μL/min to give an RU of 40-100. The surface was then allowed to stabilise. Single cycle kinetic data was obtained at a flow rate of 45 μL/min. […] The association phase for the three injections of increasing concentrations of TNF was monitored for 240 seconds and a single dissociation phase was measured for 2700 seconds following the last injection of TNF. Regeneration of the Protein A surface was conducted using 10 mM glycine-HCl pH 1.5. The signal from the reference channel Fc1 (no receptor) was subtracted from that of Fc2, Fc3 and Fc4 to correct for differences in non-specific binding to a reference surface.
(§2) At day zero (prior to freezing) and following thawing on ice after 3 months and 1 year the following assays were performed: [0341] SDS-PAGE [0342] OD280 nm [0343] Single cycle Biacore for binding to hTNFR1, hTNFR2 and mTNFR1

In assay [2] the target is T2, Fc tagged human TNFR1 (Sino Biological) (human, UniProt P19438 22-211, limits assumed).
T2 construct: Bought reagent; also called hTNFR1; hTNFR1-Fc; not shown: Fc tag of the bought protein
T2 sequence (looked up): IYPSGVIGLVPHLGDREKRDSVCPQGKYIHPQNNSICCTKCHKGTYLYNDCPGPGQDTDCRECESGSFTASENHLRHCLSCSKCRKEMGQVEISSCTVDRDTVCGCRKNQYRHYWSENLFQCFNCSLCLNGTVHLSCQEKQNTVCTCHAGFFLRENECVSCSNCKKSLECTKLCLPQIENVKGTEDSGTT
Described as above. Here is the method:
as §1, §2

Assay [3] deals with T3, Fc tagged mouse TNFR1 (Sino Biological) (mouse, UniProt P25118 22-212, limits assumed).
T3 construct: Bought reagent; also called mTNFR1; mTNFR1-Fc; not shown: Fc tag of the bought protein
T3 sequence (looked up): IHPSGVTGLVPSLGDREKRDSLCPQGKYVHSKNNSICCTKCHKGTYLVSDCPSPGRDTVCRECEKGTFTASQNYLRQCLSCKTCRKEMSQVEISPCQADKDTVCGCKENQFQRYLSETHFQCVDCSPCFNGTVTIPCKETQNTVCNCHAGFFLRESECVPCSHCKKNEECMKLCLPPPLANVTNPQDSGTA
Described as above. How it is done:
as §1, §2

For assay [4], the target named is T1, Fc tagged human TNFR2 (Sino Biological). Nature of the assay: SPR, Biacore single cycle kinetics, stability study, before freezing (t=0). Here is the method: as §1, §2
A general note: Surface plasmon resonance follows binding to a sensor surface in real time, without labels.

In assay [5] the target is T2, Fc tagged human TNFR1 (Sino Biological). Described as above. Here is the method:
as §1, §2

Assay [6] concerns the target T3, Fc tagged mouse TNFR1 (Sino Biological). Described as above. Here is the method:
as §1, §2

Assay [7] deals with T1, Fc tagged human TNFR2 (Sino Biological). Nature of the assay: SPR, Biacore T200 multi cycle kinetics, receptor-Fc captured on Protein A chip, TNF 1.25-40 nM, 1:1 model. Here is the method: (§3) Multi cycle kinetics analysis of binding to hTNFR1, hTNFR2, mTNFR1 and mTNFR2 was performed on the 10 lead variants using a Biacore T200 (serial no. 1909913) instrument running Biacore T200 Evaluation Software V3.0.1 (Uppsala, Sweden) to characterise further the binding to these receptors.
(§4) As with the single cycle kinetics, receptor binding was assessed in two separate experiments. In the first set of experiments binding to hTNFR1 (Fc2), hTNFR2 (Fc3) and mTNFR1 (Fc4) was assessed. In the second set of experiments the extent of mTNF2 (Fc4) binding was assessed using hTNFR1 (Fc2) and hTNFR2 (Fc3) as controls. All receptors were diluted in running buffer to a concentration of ˜4 μg/mL and at the start of each cycle loaded onto Fc2, Fc3 and Fc4 of a Protein A CM5 chip and captured at a flow rate of 10 μL/min to give an RU of ˜40-100. The surface was then allowed to stabilise. All kinetic data was obtained using a flow rate of 75 μl/min to minimise any potential mass transfer effects. […] The association phase of TNF was monitored for 280 seconds and the dissociation phase was measured for 2100 seconds. […] Regeneration of the Protein A surface was conducted using two injections of 10 mM glycine-HCL pH 1.5 at the end of each cycle. The signal from the reference channel Fc1 was subtracted from that of Fc2, Fc3 and Fc4 to correct for differences in non-specific binding to a reference surface, and a global Rmax parameter was used in the 1-to-1 binding model.

Assay [8] deals with T2, Fc tagged human TNFR1 (Sino Biological). Described as above. Here is the method:
as §3, §4

In assay [9] the target is T3, Fc tagged mouse TNFR1 (Sino Biological). The description is as above. How it is done:
as §3, §4

B1: TNF mutein B2 (ligand)
chain: VRSSSRTPSDKPVAHVVANPQAEGQLQWLNRRANALLANGVELRDNQLVVPSEGLYLIYSQVLFKGQGCPSTHVLLTHTISRITASYSGKVNLLSAIKSPCQRETPEGAEAKPWYEPIYLGGVFQLEKGDRLSAEINRPDYLDFAESGQVYFGIIAL
notes: Human TNF mutein, TASYSG at positions 84-89; not shown: C-terminal FLAG tag and His6 tag from vector pANT65
On to B1, for which the Kd in assay [1] came out at 0.349 nM; in assay [2], 0.0407 nM; in assay [3], 0.0864 nM; in assay [4], 0.198 nM; in [5], 0.0175 nM; in assay [6], 0.0624 nM. Further, the Kd was 0.407 nM in assay [7], 0.0216 nM in assay [8] and 0.177 nM in assay [9].

The term Kd denotes the free concentration of one partner at which half of the binding sites on the other are occupied at equilibrium, for simple one-to-one binding. Lower therefore signals higher affinity.
